Data as given in patent US20060193821, “Aptamers to the human IL-12 cytokine family and their use as autoimmune disease therapeutics” (published 2006).
Where a chain is given by its changes, count along the chain named.

Experiments:
[1] = target: T1, IL-23 (human, p19/p40 heterodimer) (Homo sapiens, UniProt Q9NPF7;P29460 SEQ:20-189,SEQ:23-328); experiment: filter; no binding detectable; conditions: tags: R&D Systems, carrier free; label: 5'-32P
Excerpt: Following the dRmY selection process for aptamers binding to IL-23 (described in Example 1C above) and determination of the oligonucleotide sequences, the sequences were systematically minimized to obtain shorter oligonucleotide sequences that retain the binding characteristics. On the basis of the IL-23 binding analysis described in Example 1A above and the cell based assay data described in Example 3 below, ARC489 (SEQ ID NO 91) (74mer) was chosen for further characterization. 3 minimized constructs based on clone ARC489 (SEQ ID NO 91) were designed and generated. […] Table 23 includes the binding data for the dRmY minimized aptamers.

[2] = target: T1, IL-23 (human, p19/p40 heterodimer); experiment: filter; 0.1 mg/mL tRNA, 30 min RT; conditions: tags: R&D Systems, carrier free; label: 5'-32P
Experimental: (§1) Monitoring Progress of rRfY Selection. Dot blot binding assays were performed throughout the selections to monitor the protein binding affinity of the pools. Trace ³²P-labeled RNA was combined with a dilution series of h-IL-23 and incubated at room temperature for 30 minutes in 1×SHMCK (20 mM Hepes, 120 mM NaCl, 5 mM KCl, 1 mM MgCl₂, 1 mM CaCl₂, pH 7.4) plus 0.1 mg/mL tRNA for a final volume of 20 μL. The binding reactions were analyzed by nitrocellulose filtration using a Minifold I dot-blot, 96-well vacuum filtration manifold (Schleicher & Schuell, Keene, N.H.). A three-layer filtration medium was used, consisting (from top to bottom) of Protran nitrocellulose (Schleicher & Schuell), Hybond-P nylon (Amersham Biosciences) and GB002 gel blot paper (Schleicher & Schuell). RNA that is bound to protein is captured on the nitrocellulose filter, whereas the non-protein bound RNA is captured on the nylon filter. The gel blot paper was included simply as a supporting medium for the other filters. Following filtration, the filter layers were separated, dried and exposed on a phosphor screen (Amersham Biosciences, Piscataway, N.J.) and quantified using a Storm 860 Phosphorimager® blot imaging system (Amersham Biosciences).

[3] = target: T1, IL-23 (human, p19/p40 heterodimer); experiment: filter; 1X PBS, tRNA, ssDNA, BSA, 30 min RT; conditions: tags: R&D Systems, carrier free; label: 32P
[4] = target: IL-12 (human, p35/p40 heterodimer) (Homo sapiens, UniProt P29459;P29460 SEQ:57-253,SEQ:23-328); experiment: filter; 1X PBS, tRNA, ssDNA, BSA, 30 min RT; conditions: label: 32P
Sequence of IL-12 (human, p35/p40 heterodimer) (P29459 23-219, chain 1 of 2): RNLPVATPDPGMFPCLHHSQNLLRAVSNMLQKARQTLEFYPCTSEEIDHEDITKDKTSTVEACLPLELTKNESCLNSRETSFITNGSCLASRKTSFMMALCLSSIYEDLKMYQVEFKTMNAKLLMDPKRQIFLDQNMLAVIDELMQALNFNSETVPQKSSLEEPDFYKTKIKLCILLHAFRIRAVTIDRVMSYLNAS
Sequence of IL-12 (human, p35/p40 heterodimer) (P29460 23-328, chain 2 of 2): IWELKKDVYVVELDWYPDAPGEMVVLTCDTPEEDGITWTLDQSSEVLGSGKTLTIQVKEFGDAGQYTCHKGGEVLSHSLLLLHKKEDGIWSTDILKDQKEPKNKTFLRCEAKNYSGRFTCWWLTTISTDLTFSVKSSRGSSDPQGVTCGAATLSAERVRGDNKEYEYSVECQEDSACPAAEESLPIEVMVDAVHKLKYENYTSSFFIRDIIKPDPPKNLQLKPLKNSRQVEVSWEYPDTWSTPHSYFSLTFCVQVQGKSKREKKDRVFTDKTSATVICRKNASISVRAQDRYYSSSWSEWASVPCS

[5] = target: T1, IL-23 (human, p19/p40 heterodimer); experiment: filter; direct binding without tRNA; conditions: tags: R&D Systems, carrier free; label: 5'-32P
Experimental: (§2) These molecules were gel purified and assayed for IL-23 binding using the dot blot assay as described above and compared to each other and to the parent molecule, ARC979. An 8 point IL-23 titration (0 nM to 300 nM, 3 fold serial dilutions) was used in the binding assay.

[6] = target: T1, IL-23 (human, p19/p40 heterodimer); experiment: filter; -tRNA; competition 6 nM; conditions: tags: R&D Systems, carrier free
Experimental: as §2

[7] = target: T2, IL-23 (mouse, p19/p40 heterodimer) (Mus musculus, UniProt Q9EQ14;P43432 SEQ:22-196,SEQ:23-335); experiment: filter; 1X PBS, 0.1 mg/mL BSA, 30 min RT; conditions: tags: isolated in-house; label: 32P
T2 sequence 1: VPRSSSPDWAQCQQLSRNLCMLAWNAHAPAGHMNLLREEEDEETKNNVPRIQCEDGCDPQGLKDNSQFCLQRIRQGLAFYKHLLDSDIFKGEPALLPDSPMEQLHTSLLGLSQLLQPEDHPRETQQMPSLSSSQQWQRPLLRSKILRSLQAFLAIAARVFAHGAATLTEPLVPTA
T2 sequence 2: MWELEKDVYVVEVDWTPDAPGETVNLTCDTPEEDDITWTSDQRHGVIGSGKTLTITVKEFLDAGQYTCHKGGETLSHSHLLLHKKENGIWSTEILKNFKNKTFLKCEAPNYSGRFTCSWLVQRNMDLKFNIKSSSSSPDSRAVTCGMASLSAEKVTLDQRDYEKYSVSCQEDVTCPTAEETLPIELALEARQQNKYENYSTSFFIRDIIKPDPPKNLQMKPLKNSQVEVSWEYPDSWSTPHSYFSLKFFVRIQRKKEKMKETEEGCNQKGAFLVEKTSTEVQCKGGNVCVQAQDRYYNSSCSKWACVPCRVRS
Excerpt: Based on visual inspection of the parent clone sequences of the mouse IL-23 rRfY aptamers described in Example 1E, and predicted RNA structures using an RNA folding program (RNAstructure), minimized constructs were designed for each of the seven binding mIL-23 clones. PCR templates for the minimized construct oligos were ordered from Integrated DNA Technologies (Coraville, Iowa). Constructs were PCR amplified, transcribed, gel purified, and tested for binding to mIL-23 using the dot blot binding assay previously described. Trace ³²P-labeled RNA was combined with mIL-23 and incubated at room temperature for 30 min in 1×PBS plus 0.1 mg/mL BSA for a final volume of 30 μL. The reaction was added to a dot blot apparatus (Schleicher and Schuell Minifold-1 Dot Blot, Acrylic). Binding curves were generated as described in previous sections. Table 33 summarizes the protein binding characterization for each rRfY minimized construct that had significant binding to mIL-23.

[8] = target: T1, IL-23 (human, p19/p40 heterodimer); experiment: filter; 0.1 mg/mL tRNA; conditions: tags: R&D Systems, carrier free
Experimental: as §1

[9] = target: T1, IL-23 (human, p19/p40 heterodimer); experiment: cell_activity; TransAM STAT3; conditions: tags: R&D Systems, carrier free
[10] = target: T1, IL-23 (human, p19/p40 heterodimer); experiment: filter; DPBS with Ca and Mg, 0.1 mg/mL tRNA, 30 min RT; conditions: tags: R&D Systems, carrier free; label: 32P
Experimental: The selection progress was monitored using the dot blot sandwich filter binding assay as described in Example 1A. The 5′-³²P-labeled pool RNA was refolded at 90° C. for 3 minutes and cooled to room temperature for 10 minutes. Next, pool RNA (trace concentration) was incubated with h-IL-23 DPBS plus 0.1 mg/mL tRNA for 30 minutes at room temperature and then applied to a nitrocellulose and nylon filter sandwich in a dot blot apparatus (Schleicher and Schuell). The percentage of pool RNA bound to the nitrocellulose was calculated and monitored approximately every 3 rounds with a single point screen (+/−250 nM h-IL-23). Pool KD measurements were measured using a titration of h-IL-23 protein (R&D, Minneapolis, Minn.) and the dot blot apparatus as described above.
The rRmY h-IL-23 selection was enriched for h-IL-23 binding vs. the naïve pool after 4 rounds of selection (data not shown). The selection stringency was increased and the selection was continued for 8 more rounds. […] The rGmH selection was enriched over the naïve pool binding at Round 10. […] FIG. 7 is a binding curve of rRmY and rGmH pool selection binding to h-IL-23. The pools were cloned using TOPO TA cloning kit (Invitrogen, Carlsbad, Calif.) and individual sequences were generated and tested for binding. A single point binding screen was initially performed on all crude rRmY clone transcriptions using a 1:200 dilution, +/−200 nM IL-23, plus 0.1 mg/mL competitor tRNA. […] The 10 point screen was performed using zero to 480 nM IL-23 in 3 fold serial dilutions. Binding curves were generated (KaleidaGraph v. 3.51, Synergy Software) and KDs were estimated by fitting the data to the equation: fraction RNA bound=amplitude[h-IL-23]/KD+[h-IL-23]). […] There was one group of 6 duplicate sequences and 4 pairs of 2 duplicate sequences out of the rRmY clones generated. […] Clones were also tested from 48 crude rGmH clone transcriptions at a 1:200 dilution and 0.1 mg/mL tRNA was used as competitor.

T1 sequence (Q9NPF7 20-189, chain 1 of 2): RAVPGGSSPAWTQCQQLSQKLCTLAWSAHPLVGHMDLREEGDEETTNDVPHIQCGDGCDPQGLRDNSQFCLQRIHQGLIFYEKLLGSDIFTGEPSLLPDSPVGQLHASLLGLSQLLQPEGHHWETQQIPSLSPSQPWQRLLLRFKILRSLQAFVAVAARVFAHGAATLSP
T1 sequence (P29460 23-328, chain 2 of 2): as the sequence (P29460 23-328, chain 2 of 2) above

ACAGCGCCGGUGUUUUCAUUGGGUGGAUGCGCUGU (mixed, 2'-deoxy A and G, 2'-OMe C and U (dRmY)) [ARC529]: no binding [1].

In the case of GGAGUACGCCGAAAGGCGCUUCCGAAAGGACGUCCGUAAGGGAUACUCC (ssRNA, 2'-F all C and U (rRfY)) [Type 1.5], the Kd [2] is reported as 31.4 nM.

B1: ARC489 (mixed)
RNA: GGGAGAGGAGAGAACGUUCUACAGCGCCGGUGGGCGGGCAUUGGGUGGAUGCGCUGUCGAUCGAUCGAUCGAUG
modifications: 2'-deoxy A and G, 2'-OMe C and U (dRmY)
B1 was tested, and the Kd [3] was 4 nM and the Kd [4] was 17.2 nM.

B2: ARC491 (mixed)
RNA: B1 RNA with C35U, U42A
modifications: 2'-deoxy A and G, 2'-OMe C and U (dRmY)
B2 was tested, and the Kd [3] was 17.1 nM and the Kd [4] was 93 nM.

In the case of ACAGGCAAGUAAUUGGGGAGUGCGGGCGGGGUGU (mixed, dRmY; PS between nt 9 and 10) [ARC1154], the Kd [5] is reported as 412 nM.

B3: ARC1161 (mixed)
RNA: ACAGGCAAGUAAUUGGGGAGUGCGGGCGGGGUGU
modifications: deoxy A,G; 2'-OMe C,U; PS 19-20 [PS between 19-20; 2'-OMe C,U at 2,6,10,13,14,21,23,27,32,34; deoxy A,G at all other positions]
Work on B3 yielded a Kd [6] of 55 nM.

B4: ARC1162 (mixed)
RNA: B3 RNA
modifications: deoxy A,G; 2'-OMe C,U; PS 20-21 [PS between 20-21; 2'-OMe C,U at 2,6,10,13,14,21,23,27,32,34; deoxy A,G at all other positions]
With B4 the Kd [6] was 47 nM.

B5: ARC490 (mixed)
RNA: GGGAGAGGAGAGAACGUUCUACAGCCUUUUGGGUAAGGGGAGGGGUGCCGGUCGCUGUCGAUCGAUCGAUCGAUG
modifications: 2'-deoxy A and G, 2'-OMe C and U (dRmY)
Work on B5 yielded a Kd [3] of 26 nM and a Kd [4] of 37.1 nM.

B6: B10.min4 (ssRNA)
RNA: GGAGCAUACACAAGAAGUGCUUCAUGCGGCAAACUGCAUGACGUCGAAUAGAUAUGCUCC
modifications: 2'-F all C and U (rRfY)
B6 showed a Kd [2] of 36.4 nM.

B7: A10.min5 (ssRNA)
RNA: GGAGCAUACACAAGAAGUUUUUUGUGCUCUGAGUACUCAGCGUCCGUAAGGGAUAUGCUCC
modifications: 2'-F all C and U (rRfY)
B7 was tested, and the Kd [2] was 57.8 nM.

In the case of GGGCACUCAGCCACCUUGGGCUUAAUACCUAUCGGAUGUGCCC (ssRNA, 2'-F all C and U (rRfY)) [ARC1634 minimer], the Kd [7] is reported as 19 nM.

GGAGUACACAAGAAGUGCUUCCGAAAGGACGUCGAAUAGAUACUCC (ssRNA, 2'-F C,U) [B10.min5] gave a Kd [8] of 277 nM and an IC50 [9] of 80 nM.

B8: rRmY clone SEQ 76 (ssRNA)
RNA: GGGAGAGGAGAGAACGUUCUACAACAAAGCAGGCUCAUAGUAAUAUGGAAGUCGCUGUCGAUCGAUCGAUCGAUG
modifications: 2'-OMe all C and U (rRmY)
B8 gave a Kd [10] of 77.2 nM.

B9: A10.min6 (ssRNA)
RNA: GGAGUACGCCGAAAGGCGCUCUGAGUACUCAGCGUCCGUAAGGGAUACUCC
modifications: 2'-F C,U
B9 showed a Kd [8] of 48.3 nM and an IC50 [9] of 250 nM.

B10: rRmY clone SEQ 88 (ssRNA)
RNA: GGGAGAGGAGAGAACGUUCUACAUAAGCAGGCUCCGAUAGUAUUCGGGAAGUCGCUGUCGAUCGAUCGAUCGAUG
modifications: 2'-OMe all C and U (rRmY)
Work on B10 yielded a Kd [10] of 101 nM.

GGGUACGCCGAAAGGCGCUUCCGAAAGGACGUCCGUAAGGGAUACCC (ssRNA, 2'-F C,U) [Type 1.4] showed a Kd [8] of 185 nM and an IC50 [9] of 80 nM.

B11: F11.min2 (ssRNA)
RNA: GGACAUACACAAGAUGUGCUUGAGUUAAAUCUCAUCGUCCCCGUUUGGGGAUAUGUC
modifications: 2'-F all C and U (rRfY)
Binder B11 has a Kd [2] of 65 nM.

B12: rRmY clone SEQ 80 (ssRNA)
RNA: GGGAGAGGAGAGAACGUUCUACAAGAUAUAAUUAAGGAUAAGUGCAAAGGAGACGCUGUCGAUCGAUCGAUCGAUG
modifications: 2'-OMe all C and U (rRmY)
For B12, the Kd [10] was 3790 nM.

GGGCACUCAGCCACAGGUGGCUUAAUACUGUAAAGACGUGCCC (ssRNA, 2'-F all C and U (rRfY)) [ARC1739 (ARC1628 minimer)] gave a Kd [7] of 1 nM.

Binder GGGCACUCAGCCACAGCUCGGUGGCUUAAUAUCUAUGUGAACGUGCCC (ssRNA, 2'-F all C and U (rRfY)) [ARC1633 minimer] has a Kd [7] of 25 nM.

B13: rRmY clone SEQ 83 (ssRNA)
RNA: GGGAGAGGAGAGAACGUUCUACGCAGGCUGUCGUAGACAAACGAUGAAGUCGCGCUGUCGAUCGAUCGAUCGAUG
modifications: 2'-OMe all C and U (rRmY)
Binder B13 has a Kd [10] of 8.2 nM.

GCGCCGGUGGGCGGGCACCGGGUGGAUGCGCC (mixed, 2'-deoxy A and G, 2'-OMe C and U (dRmY)) [ARC528]: no binding [1].
